Test results published in patent US20080057492A1, “Interacting site for gp41 on gp120 of hiv-1” (priority 2002, published 2008).

Legend:
Assay in all cases: cell-based or functional assay
[1] = target: Chimera P/7CD4bs envelope glycoprotein
[2] = target: Chimera P/7CD4bs/V3 envelope glycoprotein
[3] = target: MN-P envelope glycoprotein (neutralization resistant primary clone of the HIV-1 MN strain) (HIV-1 MN strain) (UniProt P05877)

| Substance | fifty percent neutralization concentration (pseudotyped virus) [1] | fifty percent neutralization concentration (pseudotyped virus) [2] | fifty percent neutralization concentration (pseudotyped virus) [3] |
| --- | --- | --- | --- |
| monoclonal antibody 4.8d | 60 ng/mL | 20 ng/mL | > 2.5 µg/mL |
| monoclonal antibody 17b | 480 ng/mL | 210 ng/mL | > 2.5 µg/mL |
| monoclonal antibody 19b | 60 ng/mL | 16 ng/mL | > 2.5 µg/mL |
